Assays:
[1] = molecular target: human CD19 (as in Table 11) (human) (UniProt P15391); assay: BIAcore (SPR); format not stated
[2] = molecular target: human CD19 (as in Table 11) (human) (UniProt P15391); assay: binding to human CD19 after incubation at pH 6.0; method not stated
[3] = molecular target: human CD19 (as in Table 11) (human) (UniProt P15391); assay: binding to human CD19 after incubation at pH 7.4; method not stated

Kd [1]: 5 nM
human CD19 binding after pH 6.0 incubation [%] [2]: 90%
human CD19 binding after pH 7.4 incubation [%] [3]: 46%
B1: wild-type humanized anti-human CD19 antibody 8B8 (antibody, V domains shown)
VH: QVQLVQSGAEVKKPGASVKVSCKASGYTFTDYIMHWVRQAPGQGLEWMGYINPYNDGSKYTEKFNGRVTMTSDTSISTAYMELSRLRSDDTAVYYCARGTYYYGSALFDYWGQGTTVTVSS
VL: DIVMTQTPLSLSVTPGQPASISCKSSQSLENSNGNTYLNWYLQKPGQSPQLLIYRVSKRFSGVPDRFSGSGSGTDFTLKISRVEAEDVGVYYCLQLTHVPYTFGQGTKLEIK
